First the molecules themselves.
B1: FBF1 (parent)
chain: YQRPQDSEDMWGDEDFTFGAYQPT
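Further: lentivirally expressed fusions sorted by FACS into six bins by GFP to DsRed ratio, PSI derived from sequencing read proportions per bin multiplied by bin number.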

Variants of B1 are the subject of this data set. In words: protein stability index of a GFP-peptide fusion (GPS, HEK-293T) (PSI 1-6); higher = more stable. To be noted: c terminus: a fixed tail appended.
Turning to YQRPQDSEDMWGDEDFTFGAYQCT [P23C], the protein stability index is 2.96.

For YQRPQDSEDMWGDEDFTFGAYQKT [P23K], the protein stability index turned out to be 2.68.

In the case of YQRPQDSEDMWGDEDFTFGAYQST [P23S], the protein stability index worked out at 2.61.

YQRPQDSEDMWGDEDFTFGAYQHT [P23H]: the protein stability index worked out at 3.32.

For the variant YQRPQDSEDMWGDEDFTFGAYQDT [P23D], the protein stability index worked out at 3.06.

Take YQRPQDSEDMWGDEDFTFGAYQFT [P23F]: the protein stability index was 2.74.

For the variant YQRPQDSEDMWGDEDFTFGAYQWT [P23W], the protein stability index was found to be 2.19.

As for YQRPQDSEDMWGDEDFTFGAYQLT [P23L], the protein stability index amounted to 2.87.

Turning to YQRPQDSEDMWGDEDFTFGAYQVT [P23V], the protein stability index was found to be 2.4.

Turning to YQRPQDSEDMWGDEDFTFGAYQTT [P23T], the protein stability index worked out at 2.87.

In the case of YQRPQDSEDMWGDEDFTFGAYQQT [P23Q], the protein stability index was 3.06.

Consider YQRPQDSEDMWGDEDFTFGAYQIT [P23I], for which the protein stability index is 2.64.

On to YQRPQDSEDMWGDEDFTFGAYQMT [P23M], for which the protein stability index amounted to 2.26.

Take YQRPQDSEDMWGDEDFTFGAYQGT [P23G]: the protein stability index worked out at 3.19.

In the case of YQRPQDSEDMWGDEDFTFGAYQAT [P23A], the protein stability index is 2.47.

As for YQRPQDSEDMWGDEDFTFGAYQET [P23E], the protein stability index stood at 3.36.

Consider YQRPQDSEDMWGDEDFTFGAYQNT [P23N], for which the protein stability index came out at 3.1.

Turning to YQRPQDSEDMWGDEDFTFGAYQRT [P23R], the protein stability index came to 2.67.

With YQRPQDSEDMWGDEDFTFGAYQYT [P23Y], the protein stability index is 2.85.

Turning to YQRPQDSEDMWGDEDFTLGAYQPT [F18L], the protein stability index came to 2.65.

As to YQRPQDSEDMWGDEDFTVGAYQPT [F18V], the protein stability index was determined as 3.8.

With YQRPQDSEDMWGDEDFTNGAYQPT [F18N], the protein stability index turned out to be 3.93.

Turning to YQRPQDSEDMWGDEDFTKGAYQPT [F18K], the protein stability index came out at 3.6.

As to YQRPQDSEDMWGDEDFTTGAYQPT [F18T], the protein stability index was 3.77.

Consider YQRPQDSEDMWGDEDFTAGAYQPT [F18A], for which the protein stability index worked out at 3.43.

YQRPQDSEDMWGDEDFTSGAYQPT [F18S]: the protein stability index turned out to be 3.98.

As for YQRPQDSEDMWGDEDFTRGAYQPT [F18R], the protein stability index came out at 3.61.

Take YQRPQDSEDMWGDEDFTPGAYQPT [F18P]: the protein stability index came out at 3.62.

Regarding YQRPQDSEDMWGDEDFTIGAYQPT [F18I], the protein stability index amounted to 3.06.

With YQRPQDSEDMWGDEDFTGGAYQPT [F18G], the protein stability index is 3.6.

Consider YQRPQDSEDMWGDEDFTWGAYQPT [F18W], for which the protein stability index came out at 2.53.

As to YQRPQDSEDMWGDEDFTQGAYQPT [F18Q], the protein stability index is 3.35.

On to YQRPQDSEDMWGDEDFTEGAYQPT [F18E], for which the protein stability index is 3.62.

Consider YQRPQDSEDMWGDEDFTCGAYQPT [F18C], for which the protein stability index stood at 3.19.

As to YQRPQDSEDMWGDEDFTMGAYQPT [F18M], the protein stability index is 3.25.

On to YQRPQDSEDMWGDEDFTYGAYQPT [F18Y], for which the protein stability index is 3.02.

Consider YQRPQDSEDMWGDEDFTDGAYQPT [F18D], for which the protein stability index worked out at 3.9.

Regarding YQRPQDSEDMWGDEDFTHGAYQPT [F18H], the protein stability index worked out at 3.04.

Regarding YQRPQDSEDMWGDEDFTFGAYQPF [T24F], the protein stability index was found to be 2.29.

With YQRPQDSEDMWGDEDFTFGAYQPE [T24E], the protein stability index was found to be 2.58.

Consider YQRPQDSEDMWGDEDFTFGAYQPY [T24Y], for which the protein stability index came out at 2.44.

On to YQRPQDSEDMWGDEDFTFGAYQPL [T24L], for which the protein stability index was 2.23.

Consider YQRPQDSEDMWGDEDFTFGAYQPM [T24M], for which the protein stability index stood at 2.52.

YQRPQDSEDMWGDEDFTFGAYQPN [T24N]: the protein stability index came to 3.02.

As for YQRPQDSEDMWGDEDFTFGAYQPC [T24C], the protein stability index is 2.83.

For the variant YQRPQDSEDMWGDEDFTFGAYQPH [T24H], the protein stability index stood at 2.27.

In the case of YQRPQDSEDMWGDEDFTFGAYQPV [T24V], the protein stability index worked out at 2.63.

Consider YQRPQDSEDMWGDEDFTFGAYQPW [T24W], for which the protein stability index was 1.99.

On to YQRPQDSEDMWGDEDFTFGAYQPR [T24R], for which the protein stability index stood at 2.38.

Turning to YQRPQDSEDMWGDEDFTFGAYQPG [T24G], the protein stability index was 3.25.

For the variant YQRPQDSEDMWGDEDFTFGAYQPA [T24A], the protein stability index stood at 2.79.

With YQRPQDSEDMWGDEDFTFGAYQPD [T24D], the protein stability index worked out at 2.88.

With YQRPQDSEDMWGDEDFTFGAYQPI [T24I], the protein stability index was found to be 2.24.

YQRPQDSEDMWGDEDFTFGAYQPP [T24P]: the protein stability index worked out at 3.17.

With YQRPQDSEDMWGDEDFTFGAYQPK [T24K], the protein stability index worked out at 3.02.

Turning to YQRPQDSEDMWGDEDFTFGAYQPS [T24S], the protein stability index is 2.67.

Consider YQRPQDSEDMWGDEDFTFGAYQPQ [T24Q], for which the protein stability index turned out to be 2.68.

YQRPQDSEDMWGDEDFTFGAYIPT [Q22I]: the protein stability index came out at 2.45.

For YQRPQDSEDMWGDEDFTFGAYEPT [Q22E], the protein stability index stood at 3.19.

With YQRPQDSEDMWGDEDFTFGAYAPT [Q22A], the protein stability index was found to be 2.77.

On to YQRPQDSEDMWGDEDFTFGAYRPT [Q22R], for which the protein stability index stood at 2.65.

Regarding YQRPQDSEDMWGDEDFTFGAYGPT [Q22G], the protein stability index worked out at 2.86.

With YQRPQDSEDMWGDEDFTFGAYKPT [Q22K], the protein stability index was found to be 1.95.

On to YQRPQDSEDMWGDEDFTFGAYMPT [Q22M], for which the protein stability index is 2.22.

YQRPQDSEDMWGDEDFTFGAYSPT [Q22S]: the protein stability index came to 3.03.

YQRPQDSEDMWGDEDFTFGAYNPT [Q22N]: the protein stability index was determined as 2.57.

In the case of YQRPQDSEDMWGDEDFTFGAYTPT [Q22T], the protein stability index came to 2.28.

On to YQRPQDSEDMWGDEDFTFGAYHPT [Q22H], for which the protein stability index was determined as 2.43.

With YQRPQDSEDMWGDEDFTFGAYVPT [Q22V], the protein stability index came to 2.37.

In the case of YQRPQDSEDMWGDEDFTFGAYLPT [Q22L], the protein stability index came out at 2.77.

Turning to YQRPQDSEDMWGDEDFTFGAYYPT [Q22Y], the protein stability index was 3.22.

Regarding YQRPQDSEDMWGDEDFTFGAYPPT [Q22P], the protein stability index amounted to 3.19.

For YQRPQDSEDMWGDEDFTFGAYWPT [Q22W], the protein stability index came to 1.94.

On to YQRPQDSEDMWGDEDFTFGAYFPT [Q22F], for which the protein stability index came out at 2.38.

In the case of YQRPQDSEDMWGDEDFTFGAYDPT [Q22D], the protein stability index was 3.06.

As for YQRPQDSEDMWGDEDFTFGAYCPT [Q22C], the protein stability index came out at 2.6.

In the case of YQRPQDSEDMWGDEDFTFGAFQPT [Y21F], the protein stability index was 2.98.

On to YQRPQDSEDMWGDEDFTFGAVQPT [Y21V], for which the protein stability index came to 2.92.

On to YQRPQDSEDMWGDEDFTFGAPQPT [Y21P], for which the protein stability index is 3.56.

Take YQRPQDSEDMWGDEDFTFGASQPT [Y21S]: the protein stability index was 3.51.

Turning to YQRPQDSEDMWGDEDFTFGAHQPT [Y21H], the protein stability index was determined as 3.07.

For YQRPQDSEDMWGDEDFTFGAWQPT [Y21W], the protein stability index worked out at 2.04.

YQRPQDSEDMWGDEDFTFGATQPT [Y21T]: the protein stability index was determined as 3.1.

For YQRPQDSEDMWGDEDFTFGALQPT [Y21L], the protein stability index is 3.35.

Consider YQRPQDSEDMWGDEDFTFGAGQPT [Y21G], for which the protein stability index came to 3.46.

With YQRPQDSEDMWGDEDFTFGAMQPT [Y21M], the protein stability index is 2.78.

For the variant YQRPQDSEDMWGDEDFTFGARQPT [Y21R], the protein stability index was found to be 3.06.

For YQRPQDSEDMWGDEDFTFGADQPT [Y21D], the protein stability index came to 3.73.

Consider YQRPQDSEDMWGDEDFTFGAAQPT [Y21A], for which the protein stability index was 3.51.

Turning to YQRPQDSEDMWGDEDFTFGAIQPT [Y21I], the protein stability index worked out at 3.16.

For the variant YQRPQDSEDMWGDEDFTFGACQPT [Y21C], the protein stability index amounted to 3.17.

Regarding YQRPQDSEDMWGDEDFTFGANQPT [Y21N], the protein stability index turned out to be 3.51.

With YQRPQDSEDMWGDEDFTFGAEQPT [Y21E], the protein stability index came out at 3.75.

Turning to YQRPQDSEDMWGDEDFTFGAQQPT [Y21Q], the protein stability index worked out at 3.39.

For the origin of these results see the supplement of paper PMC10567573.
